According to PMC4562812:

Molecular target: full-length recombinant H7 hemagglutinin (rH7) of A/Anhui/1/2013 (H7N9) virus (influenza A virus A/Anhui/1/2013 (H7N9))
Assay: SEC

full-length recombinant H7 hemagglutinin (rH7) of A/Anhui/1/2013 (H7N9) virus (natural protein)
stoichiometry N: 3
